# Measurements as given in patent publication US20210070872A1 (AGENUS, published 2021).
# T1: biotinylated GITR (human, UniProt Q9Y5U5 26-161, limits assumed, biotinylated (sites not given))
# T1 construct: also called GITR-bio; Biotin-GITR
# T1 sequence: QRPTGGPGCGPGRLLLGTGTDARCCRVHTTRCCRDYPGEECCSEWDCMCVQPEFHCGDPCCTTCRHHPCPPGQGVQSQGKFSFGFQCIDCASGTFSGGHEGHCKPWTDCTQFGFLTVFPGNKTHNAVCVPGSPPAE
# Target: T1, biotinylated GITR
# Test: BLI (Octet), biotin-GITR on streptavidin tips, antibody supernatant
# Description: Several hundred germlined antibodies were selected based on binding kinetics as determined by Octet measurements (Octet RED 96 system; ForteBio™ Inc., Menlo Park, Calif.). The experimental procedure was configured according to the instruction manual of the instrument. Biotin-GITR was bound to Streptavidin biosensor (SA) and PBS (pH 7.4) was used as a blank control. Briefly, the interaction analyses were conducted at 30° C. in running buffer (PBS, 0.05% Tween, pH7.4). Sensor tips were pre-wet for 10 minutes in running buffer immediately prior to use, and the micro plates used in the Octet were filled with 200 μl of sample or buffer per well and agitated at 800 rpm. For the experiments, commercially available precoated SA tips were used. Biotinylated GITR was loaded onto the ForteBio SA fibers in PBS pH7.4 for 10 minutes and washed for 4 minutes. For the association phase, the ligand-coated SA tips were immersed for 5 minutes in cell culture supernatant that was diluted 1:10 in running buffer prior to the measurement. Dissociation of the antibody-antigen complex was measured in wells containing the Octet buffer alone for 5 minutes. After each run, the tips were regenerated with Glycine (10 mM, pH 2.0). Affinity, Kₒₙ and Koff were determined with Octet evaluation software v6.3 using a 1:1 binding model with local full fitting.
Binder,Kd [nM],koff [s⁻¹],kon [M⁻¹ s⁻¹]
"germline variant antibody 25 (H1916C07 / K1916C07) (antibody, V domains shown, IGHG1/IGKC expression vectors; measured from CHO culture supernatant; also called Antibody ID 25) VH: QVQLVQSGAEVKKPGASVKVSCKASGYTFTEYAMYWVRQAPGQGLEWMGLIRTFSGGVSYNQKFRGRATMTVDTSISTAYMELSRLRSDDTAVYYCAKSGTVRGFAYWGQGTLVTVSS VL: DIVMTQSPDSLAVSLGERATINCKSSQSLLNSGNQKNYLTWYQQKPGQPPKMLIYWASTRESGVPDRFTGSGSGTDFTLTISSVQAEDVAVYYCQNDYSFPYTFGQGTKLEIK",1.69,0.000632,374000
"germline variant antibody 29 (H1916C11 / K1916C11) (antibody, V domains shown, IGHG1/IGKC expression vectors; measured from CHO culture supernatant; also called Antibody ID 29) VH: QVQLVQSGAEVKKPGASVKVSCKGSGYTFTDYAMYWVRQAPGQGLEWIGVIRTFSGGVTYNQKFKGRATMTVDTSISTAYMELSRLRSDDTAVYYCAKSGTVRGFAYWGQGTLVTVSS VL: DIVMTQSPDSLAVSLGERATINCKSSQSLLNSSNQKNYLSWYQQKPGQPPKLLIYWASTRESGVPDRFSGSGSGTDFTLTISSLQAEDVAVYHCQNDYSYPYTFGQGTKLEIK",1.06,0.000313,295000
"germline variant antibody 31 (H1916D01 / K1916D01) (antibody, V domains shown, IGHG1/IGKC expression vectors; measured from CHO culture supernatant; also called Antibody ID 31) VH: QVQLVQSGTEVKKPGASVKVSCKGSGYTFTEYAMYWVRQAPGQGLEWMGLIRTFSGGLTYNQKFKDRVTMTVDKSISTAYMELSRLRSDDTAVYYCAKSGTVRGFAYWGQGIPVTVSS VL: DIVMTQSPDSLAVSLGERATINCKSSQSLLNSSNQKNYLTWYQQKPGQPPKLLIYWASTRESGVPDRFTGSGSGTDFTLTISSLQAEDVAVYHCQNDYSYPYTFGQGTKLEIK",0.418,0.000211,505000
"germline variant antibody 33 (H1916D03 / K1916D03) (antibody, V domains shown, IGHG1/IGKC expression vectors; measured from CHO culture supernatant; also called Antibody ID 33) VH: QVQLVQSGAEVKKPGASVKVSCKASGYTFTGYAMYWVRQAPGQGMEWIGLIRTYSGGVTYNQKFQGRVTMTVDTSISTAYMELSRLRSDDTAVYYCAKSGTVRGFAYWGQGTLVTVSS VL: DIVMTQSPDSLAVSLGERATINCKSSQSLLNSGNQKNYLSWYHQKPGQPPKLLIYWASTRESGVPDRFSGSGSGTDFTLTISSVQAEDVAVYHCQNEYSYPYTFGQGTKLEIK",0.0901,0.00101,1.12e+07
"germline variant antibody 34 (H1916D04 / K1916D04) (antibody, V domains shown, IGHG1/IGKC expression vectors; measured from CHO culture supernatant; also called Antibody ID 34) VH: QVQLVQSGAEVKKPGASVKVSCKASGYTFTDYAMYWVRQAPGQGMEWIGVIRTFSGGVTYNQKFRGRVTMTVDTSISTAYMELSRLRSDDTAVYYCAKSGTVRGFAYWGQGTLVTVSS VL: DIVMTQSTDSLAVSLGERATINCKSSQSLLNSSNQKNYLTWYQQKPGQPPKLLIYWASTRESGVPDRFTGSGSGTDFTLTISSLQAEDVAVYHCQNDYSYPYTFGQGTKLEIK",0.458,0.000255,557000
"germline variant antibody 36 (H1916D06 / K1916D06) (antibody, V domains shown, IGHG1/IGKC expression vectors; measured from CHO culture supernatant; also called Antibody ID 36) VH: QVQLVQSGAEVKKPGASVKVSCKGSGYTFTDYAMYWVRQAPGQGMEWIGVIRTFSGGVSYNQKFRDRVTMTVDKSISTAYMELSRLRSDDTAVYYCAKSGTVRGFAYWGQGTLVTVSS VL: DIVMTQSPDSLAVSLGERATINCKSSQSLLNSSNQKNYLTWYHQKPGQPPKMLIYWASTRESGVPDRFSGSGSGTDFTLTISSVQEEDVAVYHCQNDYSFPYTFGQGTKLEIK",0.44,0.00028,638000
"germline variant antibody 38 (H1916D08 / K1916D08) (antibody, V domains shown, IGHG1/IGKC expression vectors; measured from CHO culture supernatant; also called Antibody ID 38) VH: QVQLVQSGTEVKKPGASVKVSCKGSGYTFTGYAMYWVRQAPGQGLEWIGVIKTYSGGVTYNQKFRGRVTMTVDKSISTAYMELSRLRSDDTAVYYCAKSGTVRGFAYWGQGTLVTVSS VL: DIVMTQSPDSLAVSLGERATINCKSSQSLLNSGNQKNYLTWYQQKPGQPPKLLIYWASTRESGVPDRFSGSGSGTDFTLTISSLQAEDVAVYYCQNDYSYPYTFGQGTKLEIK",0.0875,0.00075,8.57e+06
"germline variant antibody 39 (H1916D09 / K1916D09) (antibody, V domains shown, IGHG1/IGKC expression vectors; measured from CHO culture supernatant; also called Antibody ID 39) VH: QVQLVQSGAEVKKPGASVKVSCKGSGYTFTGYAMHWVRQAPGQGLEWMGLIRTYSGGVSYNQKFRERATMTVDTSISTAYMELSRLRSDDTAVYYCAKSGTVRGFAYWGQGTLITVSS VL: DIVMTQSPDSLAVSLGERATINCKSSQSLLNSSNQKNYLTWYQQKPGQPPKLLIYWASTRESGVPDRFTGSGSGTDFTLTISSVQAEDVAVYHCQNEYSFPYTFGQGTKLEIK",0.255,0.000997,3.91e+06
"germline variant antibody 43 (H1916E03 / K1916E03) (antibody, V domains shown, IGHG1/IGKC expression vectors; measured from CHO culture supernatant; also called Antibody ID 43) VH: QVQLVQSGAEVKKPGASVKVSCKGSGYTFTEYAMYWVRQAPGQGMEWIGLIRTFSGDVSYNQKFKGRATMTVDKSISTAYMELSRLRSDDTAVYYCAKSGTVRGFAYWGQGTLVTVSS VL: DIVMTQSPDSLAVSLGERATINCKSSQSLLNSGNQKNYLTWYQQKPGQPPKMLIYWASTRESGVPDRFTGSGSGTDFTLTISSVQAEDVAVYHCQNDYSYPYTFGQGTKLEIK",1.28,0.000477,373000
